# Measured values: the PETadex activity labels (doi:10.1126/science.aad6359)
# B1: unnamed (protein)
# chain: MQTTVTTMLLASVALAACAGGGSTPLPLPQQQPPQQEPPPPPVPLASRAACEALKDGNGDMVWPNAATVVEVAAWRDAAPATASAAALPEHCEVSGAIAKRTGIDGYPYEIKFRLRMPAEWNGRFFMEGGSGTNGSLSAATGSIGGGQIASALSRNFATIATDGGHDNAVNDNPDALGTVAFGLDPQARLDMGYNSYDQVTQAGKAAVARFYGRAADKSYFIGCSEGGREGMMLSQRFPSHYDGIVAGAPGYQLPKAGISGAWTTQSLAPAAVGLDAQGVPLINKSFSDADLHLLSQAILGTCDALDGLADGIVDNYRACQAAFDPATAANPANGQALQCVGAKTADCLSPVQVTAIKRAMAGPVNSAGTPLYNRWAWDAGMSGLSGTTYNQGWRSWWLGSFNSSANNAQRVSGFSARSWLVDFATPPEPMPMTQVAARMMKFDFDIDPLKIWATSGQFTQSSMDWHGATSTDLAAFRDRGGKMILYHGMSDAAFSALDTADYYERLGAAMPGAAGFARLFLVPGMNHCSGGPGTDRFDMLTPLVAWVERGEAPDQISAWSGTPGYFGVAARTRPLCPYPQIARYKGSGDINTEANFACAAPP
# B2: unnamed (protein)
# chain: MDGVLWRVRTAALMAALLALAAWALWASPSVEAQSNPYQRGPNPTRSALTADGPFSVATYTVSRLSVSGFGGGVIYYPTGTSLTFGGIAMSPGYTADASSLAWLGRRLASHGFVVLVINTNSRFDYPDSRASQLSAALNYLRTSSPSAVRARLDNARLAVAGHSMGGGGTLRIAEQNPSLKAAVPLTPWHTDKTFNTSVPVLIVGAEADTVAPVSQHAIPFYQNLPSTTPKVYVELDNASHFAPNSNNAAISVYTISWMKLWVDNDTRYRQFLCNVNDPALSFDRTNNRHCQ
# B3: unnamed (protein)
# chain: MAVMTPRRERSSLLSRALQVTAAAATALVTVSLAAPAHAANPYARGPNPTDALLEASSGPFSVSEENVSRLSASGFGGGIYYPRENNTYGAVAISPGYTGTEASIAWLGERIASHGFVVITIDTITTLDQPDSRAEQLNAALNHMINRASSTVRSRIDSSRLAVMGHSMGGGGTLRLASQRPDLKAAIPLTPWHLNKNWSSVTVPTLIIGADLDTIAPVATHAKPFYNSLPSSISKAYLELDGATHFAPNIPNKIIGKYSVAWLKRFVDNDTRYTQFLCPGPRDGLFGEVEYRSTCPF
# B4: unnamed (protein)
# chain: MNFPRASRLMQAAVLGGLMAVSAAATAQTNPYARGPNPTAASLEASAGPFTVRSFTVSRPSGYGAGTVYYPTNAGGTVGAIAIVPGYTARQSSIKWWGPRLASHGFVVITIDTNSTLDQPSSRSSQQMAALRQVASLNGTSSSPIYGVKTARMVMGWSMGGGGSLISAANNPSLKAAAPQAPWDSSTNFSSVTVPTLIFACENDSIAPVNSSALPIYDSMSRNAKQFLEINGGSHSCANSGNSNQALIGKKGVAWMKRFMDNDTRYSTFACENPNSTRVSDFRTANCS
# Substrate: MHET
# Assay: not given
# Details: pH 7; 30 °C; part of the chain shown
Protein,Km [µM],kcat [s⁻¹],kcat/Km [M⁻¹ s⁻¹]
B1,7.3,31,4.25e+06

# Substrate: BHET
# Assay: Proxy for plastic degradation [kcat] (s⁻¹)
# Details: pH 7
row,Protein,Proxy for plastic degradation
1,B2,0.1
2,B3,0.03
3,B4,0.8

# Substrate: hcPET
# Assay: Proxy for plastic degradation [Released monomer concentration (HPLC/LC-MS) (MHET+TPA)]
# Details: pH 9
row,Protein,Proxy for plastic degradation [mM]
1,B2,0.001
2,B3,0.001
3,B4,0.01

# Substrate: PET
# Assay: Proxy for plastic degradation [Released monomer concentration (HPLC/LC-MS) (TPA+MHET+BHET)]
# Details: pH 7
row,Protein,Proxy for plastic degradation [mM]
1,B2,0.05
2,B3,0.003
3,B4,0.32

# Same assay, conditions: pH 9; 20 °C
row,Protein,Proxy for plastic degradation [mM]
1,B2,0.0005
2,B3,0.0001
3,B4,0.001

# Same assay, conditions: pH 9; 30 °C
row,Protein,Proxy for plastic degradation [mM]
1,B2,0.01
2,B3,0.0001
3,B4,0.01

# Same assay, conditions: pH 9; 35 °C
row,Protein,Proxy for plastic degradation [mM]
1,B2,0.01
2,B3,0.0001
3,B4,0.02

# Same assay, conditions: pH 9; 40 °C
row,Protein,Proxy for plastic degradation [mM]
1,B2,0.15
2,B3,0.001
3,B4,0.03

# Same assay, conditions: pH 9; 50 °C
row,Protein,Proxy for plastic degradation [mM]
1,B2,1.2
2,B3,0.009
3,B4,0.005

# Same assay, conditions: pH 9; 60 °C
row,Protein,Proxy for plastic degradation [mM]
1,B2,3.5
2,B3,0.015
3,B4,0.0001

# Same assay, conditions: pH 9; 70 °C
row,Protein,Proxy for plastic degradation [mM]
1,B2,2
2,B3,0.01
3,B4,0.0001

# Same assay, conditions: pH 9; 80 °C
row,Protein,Proxy for plastic degradation [mM]
1,B3,0.001
2,B4,0.0001

# Substrate: pNP-C2; pNP-C4; pNP-C6; pNP-C8
# Assay: Proxy for plastic degradation [kcat] (s⁻¹)
# Details: pH 7
row,Protein,Proxy for plastic degradation
1,B4,0.005

# Substrate: PET
# Assay: Proxy for plastic degradation [Released monomer concentration (HPLC/LC-MS) (TPA+MHET+BHET)]
# Details: 0 h
row,Protein,Proxy for plastic degradation [mM]
1,B4,0
